± gives the standard deviation.
Assay: protein stability index of a GFP-peptide fusion (GPS, HEK-293T) (PSI 1-6); higher = more stable
Conditions: c terminus: a fixed tail appended
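Further: 24-mer peptide tiles fused after GFP, lentivirally expressed, FACS-sorted into six equal bins by GFP/DsRed ratio, decoded by Illumina sequencing, PSI is the read-weighted mean bin number.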

Sequence	protein stability index (treatment: DMSO)	protein stability index (treatment: MLN4924 1 uM, 8 h)
LAFRSGSDNLLVILKRKWWKYILL [SLC35F2]	2.58 ± 0.47	1.98 ± 0.54
VLISNHVTPFDHNIVNLLTTCSTP [AUP1]	2.59 ± 0.66	2.48 ± 0.35
SYPRTPHTPGTPKSAILVPSEKKV [MAP2]	4.6 ± 0.053	4.74 ± 0.26
SLNELMIVIGILSAYISNYAFANV [SLC2A12]	3.35 ± 0.31	3.18 ± 0.39
TIIASNAEEAEILHSACGLSKDHQ [TOR1AIP2]	4.48 ± 0.14	4.54 ± 0.24
GGGGSRSISASSARFVSSGSGGGY [KRT15]	4.23 ± 0.29	4.13 ± 0.3
PALKECIQGADTIRCVYILDPWFA [CRY1]	2.95 ± 0.55	2.73 ± 0.74
TINIKCHVHDPHGQVIWGMSWAKL [FBXO39]	2.84 ± 0.5	2.67 ± 0.46
VSISVVHGNLSEEAAKQMRSRGKV [CPOX]	3.37 ± 0.47	3.47 ± 0.52
HPVFYQGTYSQALNDAKRELRFLL [FAF2]	2.26 ± 0.36	2.15 ± 0.14
RSFSDKQKISLLHSCTCVLYTPSN [ALG2]	2.17 ± 0.28	2.1 ± 0.32
RRCTNIRPGETGMDVTSRCTLGDP [KLHL20]	3.99 ± 0.24	4.13 ± 0.21
HLEDWLEKRAKRLSSAPSSRAEPI [ZMAT5]	4.26 ± 0.78	3.58 ± 0.081
EEKQRELARKGSLKNGSMGSPVNQ [FAM219A]	5.33 ± 0.097	5.35 ± 0.16
IEKEYQPHVIVSTTGPNPFTTLTD [ADD1]	3.74 ± 0.25	3.9 ± 0.23
AKQLFRKLNEQSPTRCTLEAGAMT [SEC22B]	2.45 ± 0.21	2.6 ± 0.17
AQAAAAESDSRKVAEETPDGAPAL [PRKX]	5.38 ± 0.092	5.55 ± 0.12
FLVSAVAHEYIFCFVLGFFYPVML [SOAT2]	3.25 ± 0.35	3.3 ± 0.44
AEMLGSVVGNWQYFFPVIFSKASS [MAGEA3]	2.17 ± 0.31	2.21 ± 0.35
AYVAEREDELSLVKGSRVTVMEKC [NCK2]	4.31 ± 0.31	4.48 ± 0.19
ISDNSISWSAGLHNRYTENSLRGV [FUT8]	2.87 ± 0.29	2.87 ± 0.15
MHMVDLMSSIICEGDTVSQELLDT [PDS5B]	3.6 ± 0.31	3.57 ± 0.14
GLNHSLSYDVALHRTRLQDLRVLV [SCARA5]	2.2 ± 0.34	2.13 ± 0.1

Sequence	protein stability index (treatment: DMSO)	protein stability index (treatment: MLN4924 1 uM, 8 h)
QRQDPAAAQEGEDEGASAGQGPKP [GAGE1]	5.62 ± 0.13	5.7 ± 0.14
FCIPEHISPKARCLIRSLLRREPS [TRIB1]	2.34 ± 0.47	2.03 ± 0.32
VCVEHHTFFRLLLPEAPPKKFLTL [EPB41L3]	–	2.85 ± 0.42
TIKVSYARPSSASIRDANLYVSGL [ELAVL3]	2.37 ± 0.076	2.23 ± 0.3
KEYPVVPRSTVRQKVASNHSPFSS [TBX5]	3.61 ± 0.38	3.72 ± 0.32
ENKESWDKILALVPETIHDELQQS [PRIM1]	4.82 ± 0.3	4.72 ± 0.39
CDECGKHFSQGSALILHQRIHSGE [ZNF24]	5.16 ± 0.2	5.43 ± 0.2
AQALRQELERQRRLLGSVQQDLER [PBXIP1]	4.08 ± 0.091	4.23 ± 0.12
WGGAPKEGSIWRGAQMEKEWARAL [ZSWIM9]	2.8 ± 0.28	2.75 ± 0.25
AYDFHGSWEKVTGHNSPLYKRQEE [CHIT1]	4.33 ± 0.37	4.14 ± 0.45
HVGWLLVRKHPAVKEKGSTLDLSD [SCD]	2.3 ± 0.26	2.48 ± 0.45
CDSTNAAIAKQALKKPIKGKQAPR [KMT5A]	4.79 ± 0.22	4.74 ± 0.29
TEQLWRIFAGVHDEKAKPRDRQQA [TLE6]	3.45 ± 0.26	3.76 ± 0.23
TLHAVEKLQVRLATKTEPKKLEKY [ELOA2]	3.7 ± 0.31	3.73 ± 0.41
YYFGPCGKYNAMVLELLGPSLEDL [CSNK1G3]	3 ± 1.3	2.66 ± 0.43
EQGLSALHLAAQGRHAQTVETLLR [RIPK4]	3.71 ± 0.55	4.12 ± 0.23
STNEITYGLPIMVTLMVAKWTGDF [CLCN6]	3.16 ± 0.38	3.03 ± 0.45
SLRENDFIEIELDRQELTYQELLR [ANKRD40]	3.37 ± 0.62	3.57 ± 0.39
IAELLEVFDLRMMVANILNNEAFM [RHOBTB2]	3.36 ± 0.2	2.98 ± 0.55
KSPQFNRYFYLLENIAWVKSYNIC [PDS5B]	2.17 ± 0.19	2.27 ± 0.14
LEQRSESVRRTRSKIGFGILLSKE [SMAD6]	3.51 ± 0.27	3.5 ± 0.3
FMLLTQARLFDEPQLASLCLDTID [BTBD1]	2.29 ± 0.52	2.34 ± 0.48
ISDALIRRVHLTEDQWGKGTLTPR [TRIM9]	2.92 ± 0.14	3.11 ± 0.41

Sequence	protein stability index (treatment: DMSO)	protein stability index (treatment: MLN4924 1 uM, 8 h)
ELEKAHLALIDYLTQKRSQLVKKL [VPS39]	2.28 ± 0.39	2.58 ± 0.23
VLLLGSVDGRHLLRTLSRAKFWPR [DNAAF3]	2.08 ± 0.36	2.27 ± 0.15
PPAPAPLPPPSAPSLQPSRKLSPT [SCAMP3]	5.34 ± 0.25	5.32 ± 0.12
QSIQQAMRYLRNHCLDQVGLFRKS [DLC1]	2.73 ± 0.091	2.26 ± 0.28
TSKDLVTLGASSLREERGHPLHPR [C6orf223]	4.26 ± 0.063	4.33 ± 0.18
LEQFLAILPKELQAWVQKHHPENG [ZNF396]	2.63 ± 0.14	2.79 ± 0.24
GVIQSVIGWKTVRMYPFQIHSIAL [CDS2]	2.81 ± 0.34	2.94 ± 0.35
GLQVEGLRRRLEELQQELSLKDQE [LRRC45]	4.47 ± 0.17	4.73 ± 0.16
VPPRRATISSWRNDRMSTRHDGYA [RBMY1A1]	3.37 ± 0.092	3.4 ± 0.36
LKRPVNVPFDIFTEEVKFYQLGEE [KCNA4]	3.01 ± 0.27	3.27 ± 0.37
ELDELLKEISRKRRSIRYGREVEL [PTPRD]	2.5 ± 0.68	2.96 ± 0.61
HELGHVFNMLHDNSKPCISLNGPL [ADAMTS4]	3 ± 0.49	2.93 ± 0.28
ILTERVSLPFKPFAIILPILLNIR [MIA2]	2.25 ± 0.55	3.79 ± 0.64
MSVGHLRLLSHDQVAMPYQWEYPY [JAGN1]	2.11 ± 0.29	2.02 ± 0.4
LLEDDSDEEEDFFLRGPSGPRFGP [VAMP4]	3.97 ± 0.28	4.04 ± 0.39
SWSIQMRQHHHQSSFPGSLPQETN	3.51 ± 0.1	3.53 ± 0.11
KGELAPELGEEPQPRDEEEAELEL [POLD4]	5.44 ± 0.23	5.69 ± 0.13
VGGVLRGLNHSLSYDVALHRTRLQ [SCARA5]	2.59 ± 0.18	2.84 ± 0.32
DCEVFRQRFRQFQYREAAGPHEAF [ZNF449]	2.94 ± 0.29	2.93 ± 0.28
LGTRESDTEVITVEKSSPATSLFV [BCL2L13]	3.84 ± 0.15	4.04 ± 0.12
HPDSWRAYPFYWAWLPQAKVPFSQ [PI4K2A]	2.5 ± 0.37	2.02 ± 0.94
ALSGVGGIRLPNGKLKCDICGIIC [IKZF1]	1.96 ± 0.26	2.1 ± 0.34
GAVYADSGNFERCIRLWKYALDMQ [FEM1A]	2.38 ± 0.14	2.24 ± 0.38

Sequence	protein stability index (treatment: DMSO)	protein stability index (treatment: MLN4924 1 uM, 8 h)
PYFSPSASFHHKLHHKRLAKECML [CBY2]	2.56 ± 0.11	2.5 ± 0.32
KTLKAENAGLSSTAGLLREQVAQL [JUNB]	3.72 ± 0.38	4 ± 0.15
RGLLEYFKAYIKIYQGEDLPHPKS [ATL3]	3.18 ± 0.84	2.56 ± 0.88
FSTWNLDHIIEKKRTIIPTLVEAI [DFFB]	2.44 ± 0.45	2.55 ± 0.34
NTVLRFLDLKGNNLRAAGAEALGK [LRRC45]	3.31 ± 0.27	3.28 ± 0.25
QVSQVKGAARLALLQGAGLDVERW [FCHSD1]	2.89 ± 0.32	3.16 ± 0.49
IKENAQDTMRQINKKGFWSYGPVI [TOR1AIP2]	2.51 ± 0.45	2.52 ± 0.26
FRADQRSGPRQLLTLYNPTGTALR [MOSPD3]	3.2 ± 0.22	3.39 ± 0.35
VGMNFLHCMAPPLLHLDLKPANIL [RIPK4]	2.73 ± 0.57	2.14 ± 0.63
KISKEEMVRRLKMVVKTFMDMDQD [PDS5B]	2.26 ± 0.21	2.23 ± 0.25
QRARKEREKEDYLHLKRQPKRRWL [RHOBTB2]	4.05 ± 0.23	4.16 ± 0.23
QKISLLHSCTCVLYTPSNEHFGIV [ALG2]	2.55 ± 0.84	2.61 ± 0.8
KNNICFMSHHQEELVPKQPQKRKP [SLC2A12]	4.31 ± 0.14	4.64 ± 0.3
KKEDTEKERDLRDVGDWRKNIEEK [TNNI2]	5.38 ± 0.26	5.39 ± 0.21
LYYLRASKAAAGKMNLYESFAQAT [INTS3]	2.59 ± 0.39	2.57 ± 0.31
LLDEEEALAKKFIDKNTQLTLQVY [TRIM14]	2.53 ± 0.42	2.72 ± 0.34
LSRYLIEPCGPGKSKLTYMCRVDL [DLC1]	2.99 ± 0.73	3.2 ± 1.3
GRWVNENCRLQSPYFSPSASFHHK [CBY2]	2.89 ± 0.19	2.86 ± 0.31
CAMEDHNCEQLCVNVPGSFVCQCY [MATN2]	2.5 ± 0.35	2.48 ± 0.39
QLLLIKALQEKLWNVAAPLYLKQS [INTS4]	3.14 ± 0.31	2.89 ± 0.18
MFFKDRFYMRTNPFYPEVELNFIS [MMP1]	2.44 ± 0.73	2.71 ± 0.68

Source: the supplement of paper PMC10567573
